Experimental data taken from article PMC12269619.

Columns and labels:
[1] = target: Biotinylated junctional peptide NPDP19 (Plasmodium falciparum (clone 3D7)) (UniProt Q7K740); experiment: BLI
PfCSPm [2] = experiment: BLI; KD1
PfCSPm [3] = experiment: BLI; KD2, second site

CIS43 mature
Kd [1]: 8.6 nM
Kd (PfCSPm [2]): 45.2 nM
Kd (PfCSPm [3]): 1300 nM
